Where two headings read alike, the source gives them in different places.

The subject of series [1] is Z05-D DNA polymerase (Thermus sp. Z05?). The following applies: SYBR Green melting, 50 mM Tris pH 8.0, 100 mM KCl, 2.5 mM MgCl2.
The test system of series [2] is Z05 DNA polymerase (Thermus sp. Z05?). Briefly: inhibition. As to conditions: KRAS PCR, 60 C, 10x excess, no UNG, 20 nM Z05, 3 mM MgCl2.

As for “CGATCATCTCAGAACATTCTTAGCGTTTTGTTCTTGTGTATGATCG [U0 (NTQ21-46A)]”, the binding in series [1] (aptamer Tm 60.7 C with 20 nM Z05-D vs 59.0 C without) is 1.7 °C. For the same sequence, in series [2] (no-target Ct 32.0 vs 25.7 without aptamer), the activity worked out at 32 Ct.
As for “CGAUCAUCTCAGAACATTCTTAGCGTTTTGTTCTTGTGTAUGAUCG [U1]”, the binding in series [1] (dU replacing dT at positions shown as u (low dU content), aptamer Tm 58.4 C with 20 nM Z05-D vs 56.8 C without) was 1.6 °C. In series [2] (dU replacing dT at positions shown as u (low dU content), no-target Ct 31.7 vs 25.7 without aptamer), this sequence yielded an activity of 31.7 Ct.
On to “CGATCATCTCAGAACATTCTTAGCGTTTUGUUCUUGTGTATGATCG [U2]”, for which, in series [1] (dU replacing dT at positions shown as u (medium dU content), aptamer Tm 59.5 C with 20 nM Z05-D vs 57.9 C without), the binding worked out at 1.6 °C. Moreover, in series [2] (dU replacing dT at positions shown as u (medium dU content), no-target Ct 31.2 vs 25.7 without aptamer), the activity came out at 31.2 Ct.
Sequence “CGAUCAUCTCAGAACATTCTTAGCGTTTUGUUCUUGTGTAUGAUCG [U3]” showed a binding in series [1] (dU replacing dT at positions shown as u (high dU content), aptamer Tm 57.6 C with 20 nM Z05-D vs 55.6 C without) of 2 °C. The same sequence yielded an activity in series [2] (dU replacing dT at positions shown as u (high dU content), no-target Ct 30.8 vs 25.7 without aptamer) of 30.8 Ct.

The record behind these values is patent US20150176059.
